Test results as given in patent publication US10464978B2, “Peptides and combination of peptides for use in immunotherapy against ovarian cancer and other cancers” (immatics biotechnologies GmbH, priority 2015, dated 2019).

biological target: HLA-A*02:01 (Homo sapiens, UniProt P04439, D140Y/D185E/D98H/E176V/E277Q/G131W/G231S/I119V/I121R/I166T/I218V/L300P/L318F/N151K/N90K/P208A/P217A/Q86G/Q94H/R138H/R169H/T345S); assay: MHC binding assay: UV-ligand exchange with beta2m ELISA (peptide exchange yield); conditions: binding to HLA-A*02:01
Procedure, shortened: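 Values give exchange yield, measured by β2m ELISA: 100-fold-diluted monomers bound to streptavidin plates (1h, 37° C), probed with HRP anti-β2m at 2 ug/ml and read at 450 nm after TMB. Monomers came from UV-triggered cleavage of a photolabile peptide and exchange for the test peptide.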

How did the “Peptide exchange (MHC class I binding score, peptide exchange yield)” value (“Peptide exchange” below) turn out when “177 (YLLPEEYTSTL; listed as Homo sapiens) [compound 177]” was run?
Its value is ““++++” (≥75% = ++++)”.

With “32 (KLDDLTQDLTV; listed as Homo sapiens) [compound 32]” as the substance, how does the “Peptide exchange” value read?
The value was ““++” (≥20% = ++)”.

“570 (ALANQIPTV; listed as Homo sapiens) [compound 570]” was tested. Which “Peptide exchange” value did it give?
The value was ““++” (≥20% = ++)”.

“456 (LLIGHLERV; listed as Homo sapiens) [compound 456]” was tested. Which “Peptide exchange” value did it give?
The value was ““+++” (≥50 = +++)”.

For “86 (NLIGKIENV; listed as Homo sapiens) [compound 86]”, which “Peptide exchange” value is on record?
The value was ““+++” (≥50 = +++)”.

For “53 (KMIETDILQKV; listed as Homo sapiens) [compound 53]”, which “Peptide exchange” value is on record?
Its value is ““++++” (≥75% = ++++)”.

Which “Peptide exchange” value does the source give for “461 (VMFRTPLASV; listed as Homo sapiens) [compound 461]” here?
The value was ““++” (≥20% = ++)”.

For “434 (KVSNSGITRV; listed as Homo sapiens) [compound 434]”, which “Peptide exchange” value is on record?
The value was ““++” (≥20% = ++)”.

Which “Peptide exchange” value does the source give for “458 (SLIDKLYNI; listed as Homo sapiens) [compound 458]” here?
Its value is ““++” (≥20% = ++)”.

How did the “Peptide exchange” value turn out when “101 (ILVGGGALATV; listed as Homo sapiens) [compound 101]” was run?
The value was ““+++” (≥50 = +++)”.

For “602 (YLLEQIKLIEV; listed as Homo sapiens) [compound 602]”, which “Peptide exchange” value is on record?
Its value is ““++++” (≥75% = ++++)”.

How did the “Peptide exchange” value turn out when “284 (ILLSQTTGV; listed as Homo sapiens) [compound 284]” was run?
Its value is ““+++” (≥50 = +++)”.

How did the “Peptide exchange” value turn out when “161 (ALLEGVNTV; listed as Homo sapiens) [compound 161]” was run?
Its value is ““+++” (≥50 = +++)”.

With “41 (SLMPHIPGL; listed as Homo sapiens) [compound 41]” as the substance, how does the “Peptide exchange” value read?
The value was ““+++” (≥50 = +++)”.

“453 (KLLEATSAV; listed as Homo sapiens) [compound 453]” was tested. Which “Peptide exchange” value did it give?
The value was ““++” (≥20% = ++)”.

How did the “Peptide exchange” value turn out when “188 (GLFPVTPEAV; listed as Homo sapiens) [compound 188]” was run?
The value was ““+++” (≥50 = +++)”.

Which “Peptide exchange” value does the source give for “273 (NLFQSVREV; listed as Homo sapiens) [compound 273]” here?
The value was ““++” (≥20% = ++)”.

Which “Peptide exchange” value does the source give for “548 (ALWENPESGEL; listed as Homo sapiens) [compound 548]” here?
The value was ““++” (≥20% = ++)”.

For “611 (YLLDDGTLVV; listed as Homo sapiens) [compound 611]”, which “Peptide exchange” value is on record?
The value was ““++++” (≥75% = ++++)”.

“348 (ILLDVKTRL; listed as Homo sapiens) [compound 348]” was tested. Which “Peptide exchange” value did it give?
Its value is ““++++” (≥75% = ++++)”.

With “83 (ILAPTVMMI; listed as Homo sapiens) [compound 83]” as the substance, how does the “Peptide exchange” value read?
The value was ““+++” (≥50 = +++)”.

Which “Peptide exchange” value does the source give for “193 (QLLDADGFLNV; listed as Homo sapiens) [compound 193]” here?
Its value is ““+++” (≥50 = +++)”.

With “312 (IISDLTIAL; listed as Homo sapiens) [compound 312]” as the substance, how does the “Peptide exchange” value read?
Its value is ““+++” (≥50 = +++)”.

“451 (LLLLDTVTMQV; listed as Homo sapiens) [compound 451]” was tested. Which “Peptide exchange” value did it give?
The value was ““++” (≥20% = ++)”.

Which “Peptide exchange” value does the source give for “604 (SILDRDDIFV; listed as Homo sapiens) [compound 604]” here?
Its value is ““+++” (≥50 = +++)”.
